Measured values from patent US20220233607A1 (UNIVERSIT DE TOURS, published 2022).

B1: scFv anti-DEC205 (DC2) protein, membrane anchored ScFv DEC 205 including a HA tag, on the surface of T. gondii RH-DC2 tachyzoites (scFv)
scFv: YPYDVPDYAQVQLQESGGGLVQPGGSLRLSCAASGFTFNDFYMNWIRQPPGQAPEWLGVIRNKGNGYTTEVNTSVKGRFTISRDNTQNILYLQMNSLRAEDTAIYYCARGGPYYYSGDDAPYWGQGVMVTVSSGGGGSGGGGSGGGGSDIQMTQSPSSLSASVGDRVTITCRASQNIKGWLAWYQQKSGNAPQLLIYKASSLQSGVPSRFSGSGSGTDYIFTISNLQPEDIATYYCQHYQSFPWTFGGGTKLELKGGGAS
notes: also called SS SAG1-HA-ScFv-linker-GPI; RH-DEC205
B2: scFv anti-DEC205 fused to SAG1 (DC2 SAG1) protein, membrane anchored SAG1 ScFv DEC 205 including a HA tag, on the surface of T. gondii RH-DC2-SAG1 tachyzoites (scFv)
scFv: YPYDVPDYAQVQLQESGGGLVQPGGSLRLSCAASGFTFNDFYMNWIRQPPGQAPEWLGVIRNKGNGYTTEVNTSVKGRFTISRDNTQNILYLQMNSLRAEDTAIYYCARGGPYYYSGDDAPYWGQGVMVTVSSGGGGSGGGGSGGGGSDIQMTQSPSSLSASVGDRVTITCRASQNIKGWLAWYQQKSGNAPQLLIYKASSLQSGVPSRFSGSGSGTDYIFTISNLQPEDIATYYCQHYQSFPWTFGGGTKLELKGGGASPLVANQVVTCPDKKSTAAVILTPTENHFTLKCPKTALTEPPTLAYSPNRQICPAGTTSSCTSKAVTLSSLIPEAEDSWWTGDSASLDTAGIKLTVPIEKFPVTTQTFVVGCIKGDDAQSCMVTVTVQARASSVVNNVARCSYGADSTLGPVKLSAEGPTTMTLVCGKDGVKVPQDNNQYCSGTTLTGCNEKSFKDILPKLTENPWQGNASSDKGATLTIKKEAFPAESKSVIIGCTGGSPEKHHCTVKLEFA
notes: also called RH-DEC205

Target: T1, DEC205 on MutuDC 1950 cells (murine dendritic cell line, DEC205+) (murine, UniProt Q60767 28-1723)
T1 construct: whole, on cells; also called CD205; dendritic cells
Experiment: flow cytometry, MutuDC 1950 cells with parasites at MOI 2 on ice, anti-gp23 mAb

Binder	multiplication factor of the percentage of T. gondii binding to mutuDC cells (against RH strain) [fold]
B1	≥ 2.5
B2	≥ 2.5
